Test results published in patent CN111471109A (SHENZHEN INST OF ADV TECH CAS, dated 2020).

Target: T1, FGFR4蛋白 (成纤维细胞生长因子受体4, recombinant protein antigen bought from 义翘神州 / Sino Biological) (human, UniProt P22455 22-369, limits assumed)
T1 construct: In the Western blot the protein was boiled and denatured; also called FGFR4蛋白抗原; fibroblast growth factor receptor 4
T1 sequence (looked up): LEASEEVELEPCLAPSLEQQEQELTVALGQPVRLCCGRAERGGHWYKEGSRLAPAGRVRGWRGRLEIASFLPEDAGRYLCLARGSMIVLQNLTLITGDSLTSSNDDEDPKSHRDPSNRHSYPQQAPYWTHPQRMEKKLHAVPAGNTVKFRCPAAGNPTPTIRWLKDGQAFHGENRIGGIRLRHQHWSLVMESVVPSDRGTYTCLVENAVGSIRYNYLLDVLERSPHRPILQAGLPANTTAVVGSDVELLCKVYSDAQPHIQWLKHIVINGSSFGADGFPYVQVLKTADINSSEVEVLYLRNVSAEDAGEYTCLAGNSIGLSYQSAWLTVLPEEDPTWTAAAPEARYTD
Assay: BLI (OCTET K2), FGFR4 protein 10 μg/ml loaded on AHC (Anti-hIgG Fc Capture) sensors, 6G12F5 in solution at 8.84-566.7 nM

B1: 6G12F5抗体 (抗FGFR4的单克隆抗体6G12F5) (antibody, V domains shown)
VH: EVMLVESGGGLVKPGGSLKLSCAVSGFTFRNYAMSWVRQSPEKRLEWVAEISNGGRYIYYPDTVTGRFTISRDNAKNTLYLEMSSLRSEDTAMYYCVRGGEKTSGYVWFAYWGEGTLVTVG
VL: DIQMTQTPASLSASVEETVTITCRASENIYSYLAWYQQKQGRSPQLLLYNAKTLAEGVPSRFSGSGSGTQFSLKINSLQPEDFGIYYCQHFSGTPYTFGEGTKLEIT
notes: Mouse hybridoma monoclonal antibody (BALB/c), purified from ascites on Protein G and detected with anti-mouse IgG; also called FGFR4单克隆抗体; FGFR4抗体
Kd: < 1 pM
